Assay results published in patent US12116424 (WISCONSIN ALUMNI RESEARCH FOUNDATION, dated 2024).
Read-outs that look alike come from different tables or passages of the source. Bridges are numbered along the chain shown (N, C = ends). Where no end group is shown, it is not given here. [ ]: non-standard residue; d: D form.

How the values were obtained:
Experiment in all cases: cell-based or functional assay
L. monocytogenes AgrC [1] = target: T1, L. monocytogenes AgrC (Listeria monocytogenes (EGD-e))
L. monocytogenes AgrC [2] = target: T1, L. monocytogenes AgrC; remark: listed apart in the source
L. monocytogenes AgrC [3] = target: T1, L. monocytogenes AgrC; remark: listed apart in the source

For INCDFLL (bridge 3-C; also: thiolactone: Cys3 side chain to C-terminal carboxyl) [Sa AIP-III], the “Max Activation (agr-GFP reporter, ΔagrD strain)” value (L. monocytogenes AgrC [1]) was 11.3% and the “Max Inhibition (agr-GFP reporter, wild-type strain)” value (L. monocytogenes AgrC [1]) was 0.64%.

B1: 12-mer (peptide)
peptide: DSSMSKACFMFV
modifications: not fully specified; thiolactone ring Cys8-Val12 (Cys side chain to C-terminal carboxyl)
In the case of B1, the “EC50 (agr-GFP reporter, ΔagrD strain)” value (L. monocytogenes AgrC [2]) is reported as 43.4 nM, the “Max Activation (agr-GFP reporter, ΔagrD strain)” value (L. monocytogenes AgrC [2]) is reported as 116% and the “Max Inhibition (agr-GFP reporter, wild-type strain)” value (L. monocytogenes AgrC [2]) is reported as 0.26%.

B2: 15-mer (peptide)
peptide: KVADSSMSKACFMFV
modifications: not fully specified; thiolactone ring Cys11-Val15 (Cys side chain to C-terminal carboxyl)
With B2 the “EC50 (agr-GFP reporter, ΔagrD strain)” value (L. monocytogenes AgrC [2]) was 22.2 nM, the “Max Activation (agr-GFP reporter, ΔagrD strain)” value (L. monocytogenes AgrC [2]) was 122% and the “Max Inhibition (agr-GFP reporter, wild-type strain)” value (L. monocytogenes AgrC [2]) was 0.23%.

B3: 14-mer (peptide)
peptide: VADSSMSKACFMFV
modifications: not fully specified; thiolactone ring Cys10-Val14 (Cys side chain to C-terminal carboxyl)
With B3 the “EC50 (agr-GFP reporter, ΔagrD strain)” value (L. monocytogenes AgrC [2]) was 39.9 nM, the “Max Activation (agr-GFP reporter, ΔagrD strain)” value (L. monocytogenes AgrC [2]) was 105% and the “Max Inhibition (agr-GFP reporter, wild-type strain)” value (L. monocytogenes AgrC [2]) was 0%.

B4: Se AIP-I D1AS6A (peptide)
peptide: ASVCAAYF
modifications: not fully specified; thiolactone ring Cys4-Phe8 (Cys side chain to C-terminal carboxyl)
B4 was tested, and the “Max Activation (agr-GFP reporter, ΔagrD strain)” value (L. monocytogenes AgrC [1]) was 12.4% and the “Max Inhibition (agr-GFP reporter, wild-type strain)” value (L. monocytogenes AgrC [1]) was 0%.

B5: 8-mer (peptide)
peptide: SKACFMFV
modifications: not fully specified; thiolactone ring Cys4-Val8 (Cys side chain to C-terminal carboxyl)
For B5, the “EC50 (agr-GFP reporter, ΔagrD strain)” value (L. monocytogenes AgrC [2]) was 68.6 nM, the “IC50 (agr-GFP reporter, wild-type strain)” value (from here on “IC50”) (L. monocytogenes AgrC [2]) was 842 nM and the “Max Activation (agr-GFP reporter, ΔagrD strain)” value (L. monocytogenes AgrC [2]) was 71.5%. For the same binder, the “Max Inhibition (agr-GFP reporter, wild-type strain)” value (L. monocytogenes AgrC [2]) was 29.4%.

B6: 9-mer (peptide)
peptide: MSKACFMFV
modifications: not fully specified; thiolactone ring Cys5-Val9 (Cys side chain to C-terminal carboxyl)
For B6, the “EC50 (agr-GFP reporter, ΔagrD strain)” value (L. monocytogenes AgrC [2]) was 23.5 nM, the “IC50” value (L. monocytogenes AgrC [2]) was 416 nM and the “Max Activation (agr-GFP reporter, ΔagrD strain)” value (L. monocytogenes AgrC [2]) was 93.6%. For the same binder, the “Max Inhibition (agr-GFP reporter, wild-type strain)” value (L. monocytogenes AgrC [2]) was 8.89%.

B7: Se AIP-I (peptide)
peptide: DSVCASYF
modifications: not fully specified; thiolactone ring Cys4-Phe8 (Cys side chain to C-terminal carboxyl)
With B7 the “Max Activation (agr-GFP reporter, ΔagrD strain)” value (L. monocytogenes AgrC [1]) was 8.65% and the “Max Inhibition (agr-GFP reporter, wild-type strain)” value (L. monocytogenes AgrC [1]) was 0%.

INCAFLL (bridge 3-C; also: thiolactone: Cys3 side chain to C-terminal carboxyl) [Sa AIP-III D4A] was tested, and the “Max Activation (agr-GFP reporter, ΔagrD strain)” value (L. monocytogenes AgrC [1]) was 12.3% and the “Max Inhibition (agr-GFP reporter, wild-type strain)” value (L. monocytogenes AgrC [1]) was 5.87%.

In the case of KKCFMFV (bridge 3-C; also: thiolactone: Cys3 side chain to C-terminal carboxyl) [7-mer A2K], the “EC50 (agr-GFP reporter, ΔagrD strain)” value (L. monocytogenes AgrC [3]) is reported as 185 nM, the “IC50” value (L. monocytogenes AgrC [3]) is reported as 359 nM and the “Max Activation Observed (agr-GFP reporter, ΔagrD strain)” value (L. monocytogenes AgrC [3]) is reported as 64.8%. For the same binder, the “Max Inhibition Observed (agr-GFP reporter, wild-type strain)” value (“Max Inhibition Observed” for short) (L. monocytogenes AgrC [3]) was 51.8%.

B8: 10-mer (peptide)
peptide: SMSKACFMFV
modifications: not fully specified; thiolactone ring Cys6-Val10 (Cys side chain to C-terminal carboxyl)
With B8 the “EC50 (agr-GFP reporter, ΔagrD strain)” value (L. monocytogenes AgrC [2]) was 21.5 nM, the “Max Activation (agr-GFP reporter, ΔagrD strain)” value (L. monocytogenes AgrC [2]) was 110% and the “Max Inhibition (agr-GFP reporter, wild-type strain)” value (L. monocytogenes AgrC [2]) was 0%.

B9: Sa AIP-IV (peptide)
peptide: YSTCYFIM
modifications: not fully specified; thiolactone ring Cys4-Met8 (Cys side chain to C-terminal carboxyl)
B9 was tested, and the “Max Activation (agr-GFP reporter, ΔagrD strain)” value (L. monocytogenes AgrC [1]) was 9.81% and the “Max Inhibition (agr-GFP reporter, wild-type strain)” value (L. monocytogenes AgrC [1]) was 8.56%.

B10: Sa AIP-II (peptide)
peptide: GVNACSSLF
modifications: not fully specified; thiolactone ring Cys5-Phe9 (Cys side chain to C-terminal carboxyl)
B10 was tested, and the “Max Activation (agr-GFP reporter, ΔagrD strain)” value (L. monocytogenes AgrC [1]) was 12% and the “Max Inhibition (agr-GFP reporter, wild-type strain)” value (L. monocytogenes AgrC [1]) was 0%.

With KA[dC]FMFV (bridge 3-C; also: thiolactone: dCys3 side chain to C-terminal carboxyl) [7-mer C3dC] the “IC50” value (L. monocytogenes AgrC [3]) was 3800 nM, the “Max Activation Observed (agr-GFP reporter, ΔagrD strain)” value (L. monocytogenes AgrC [3]) was 7.08% and the “Max Inhibition Observed” value (L. monocytogenes AgrC [3]) was 49.3%.

B11: Se AIP-I D1AV3AS6A (peptide)
peptide: ASACAAYF
modifications: not fully specified; thiolactone ring Cys4-Phe8 (Cys side chain to C-terminal carboxyl)
In the case of B11, the “Max Activation (agr-GFP reporter, ΔagrD strain)” value (L. monocytogenes AgrC [1]) is reported as 12.1% and the “Max Inhibition (agr-GFP reporter, wild-type strain)” value (L. monocytogenes AgrC [1]) is reported as 0.06%.

For KA[dC]F[dM]FV (bridge 3-C; also: thiolactone: dCys3 side chain to C-terminal carboxyl) [7-mer C3dC/M5dM], the “IC50” value (L. monocytogenes AgrC [3]) was 1290 nM, the “Max Activation Observed (agr-GFP reporter, ΔagrD strain)” value (L. monocytogenes AgrC [3]) was 7.89% and the “Max Inhibition Observed” value (L. monocytogenes AgrC [3]) was 88.9%.

B12: 13-mer (peptide)
peptide: ADSSMSKACFMFV
modifications: not fully specified; thiolactone ring Cys9-Val13 (Cys side chain to C-terminal carboxyl)
With B12 the “EC50 (agr-GFP reporter, ΔagrD strain)” value (L. monocytogenes AgrC [2]) was 29 nM, the “Max Activation (agr-GFP reporter, ΔagrD strain)” value (L. monocytogenes AgrC [2]) was 108% and the “Max Inhibition (agr-GFP reporter, wild-type strain)” value (L. monocytogenes AgrC [2]) was 0%.

In the case of KACF[dM]FV (bridge 3-C; also: thiolactone: Cys3 side chain to C-terminal carboxyl) [7-mer M5dM], the “EC50 (agr-GFP reporter, ΔagrD strain)” value (L. monocytogenes AgrC [3]) is reported as 8.29 nM, the “Max Activation Observed (agr-GFP reporter, ΔagrD strain)” value (L. monocytogenes AgrC [3]) is reported as 71.9% and the “Max Inhibition Observed” value (L. monocytogenes AgrC [3]) is reported as 18.5%.

B13: Sa AIP-I (peptide)
peptide: YSTCDFIM
modifications: not fully specified; thiolactone ring Cys4-Met8 (Cys side chain to C-terminal carboxyl)
For B13, the “Max Activation (agr-GFP reporter, ΔagrD strain)” value (L. monocytogenes AgrC [1]) was 12.2% and the “Max Inhibition (agr-GFP reporter, wild-type strain)” value (L. monocytogenes AgrC [1]) was 1.29%.

With NAAKYNPCASYL (bridge 8-C) [Se AIP-III] the “Max Activation (agr-GFP reporter, ΔagrD strain)” value (L. monocytogenes AgrC [1]) was 8.73% and the “Max Inhibition (agr-GFP reporter, wild-type strain)” value (L. monocytogenes AgrC [1]) was 0%.

B14: Se AIP-II (peptide)
peptide: NASKYNPCSNYL
modifications: not fully specified; thiolactone ring Cys8-Leu12 (Cys side chain to C-terminal carboxyl)
In the case of B14, the “Max Activation (agr-GFP reporter, ΔagrD strain)” value (L. monocytogenes AgrC [1]) is reported as 8.45% and the “Max Inhibition (agr-GFP reporter, wild-type strain)” value (L. monocytogenes AgrC [1]) is reported as 0%.

B15: 11-mer (peptide)
peptide: SSMSKACFMFV
modifications: not fully specified; thiolactone ring Cys7-Val11 (Cys side chain to C-terminal carboxyl)
With B15 the “EC50 (agr-GFP reporter, ΔagrD strain)” value (L. monocytogenes AgrC [2]) was 14.3 nM, the “Max Activation (agr-GFP reporter, ΔagrD strain)” value (L. monocytogenes AgrC [2]) was 111% and the “Max Inhibition (agr-GFP reporter, wild-type strain)” value (L. monocytogenes AgrC [2]) was 3.9%.

For KACFMFV (bridge 3-C; also: thiolactone: Cys3 side chain to C-terminal carboxyl) [7-mer, K-A-(C-F-M-F-V)], the “EC50 (agr-GFP reporter, ΔagrD strain)” value (L. monocytogenes AgrC [2]) was 61.7 nM, the “IC50” value (L. monocytogenes AgrC [2]) was 866 nM and the “Max Activation (agr-GFP reporter, ΔagrD strain)” value (L. monocytogenes AgrC [2]) was 64.6%. The “Max Inhibition (agr-GFP reporter, wild-type strain)” value (L. monocytogenes AgrC [2]) was 38.3%.
